US20130251724A1 (GlaxoSmithKline, published 2013)
Changes are numbered by the printed parent chain. Numbers in names are those of the source. Where “and” joins values, the source holds several entries; their conditions need not be identical. Equal entries are not always repeated.

T1: Human OSM (human, UniProt P13725 26-221)
T1 construct: Recombinant human OSM; also called hOSM; human Oncostatin M
T1 sequence: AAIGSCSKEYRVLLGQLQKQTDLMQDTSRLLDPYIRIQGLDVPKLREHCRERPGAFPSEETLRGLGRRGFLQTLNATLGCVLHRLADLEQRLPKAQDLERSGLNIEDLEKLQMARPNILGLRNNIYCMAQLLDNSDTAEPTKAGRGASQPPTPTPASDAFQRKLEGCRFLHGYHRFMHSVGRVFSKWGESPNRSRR

T2: Cynomolgus OSM (cynomolgus, UniProt A0A2K5VPC6 26-221)
T2 sequence: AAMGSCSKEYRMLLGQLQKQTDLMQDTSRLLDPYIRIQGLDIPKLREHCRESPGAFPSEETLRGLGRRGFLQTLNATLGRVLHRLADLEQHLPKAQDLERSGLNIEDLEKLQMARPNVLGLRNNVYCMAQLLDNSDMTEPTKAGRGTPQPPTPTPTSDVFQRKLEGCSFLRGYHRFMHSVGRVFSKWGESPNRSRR

B1: Pos 100B His (antibody, V domains shown)
VH: EVQLVESGGGLVQPGGSLRLSCAASGFTFSSYAMSWVRQAPGKGLEWVATISDGGSFTYYLDNVRGRFTISRDNAKNSLYLQMNSLRAEDTAVYYCARDVGHTTFHYFDVWGRGTLVTVSS
VL: DIVMTQSPDSLAVSLGERATINCRASKSVSAAGYNFMHWYQQKPGQPPKVLIYYASNLESGVPDRFSGSGSGTDFTLTISSLQAEDVAVYYCLHSREFPFTFGGGTKVEIKR
notes: also called CDRH3 W100B>H
B2: Pos 99 His (antibody, V domains shown)
VH: B1 VH with T103H, H106W
VL: B1 VL
notes: also called CDRH3 T99>H
B3: Pos 99 Met (antibody, V domains shown)
VH: B1 VH with T103M, H106W
VL: B1 VL
notes: also called CDRH3 T99>M
B4: Pos 98 Met (antibody, V domains shown)
VH: B1 VH with H102M, H106W
VL: B1 VL
notes: also called CDRH3 H98>M
B5: Pos 96 Thr (antibody, V domains shown)
VH: B1 VH with V100T, H106W
VL: B1 VL
notes: also called CDRH3 V96>T
B6: Pos 98 Trp (antibody, V domains shown)
VH: B1 VH with H102W, H106W
VL: B1 VL
notes: also called CDRH3 H98>W
B7: Pos 102 Ser (antibody, V domains shown)
VH: B1 VH with H106W, V110S
VL: B1 VL
notes: also called CDRH3 V102>S
B8: Pos 100D Val (antibody, V domains shown)
VH: B1 VH with H106W, F108V
VL: B1 VL
notes: also called CDRH3 F100D>V
B9: Pos 100C Val (antibody, V domains shown)
VH: B1 VH with H106W, Y107V
VL: B1 VL
notes: also called CDRH3 Y100C>V
B10: Pos 100D Trp (antibody, V domains shown)
VH: B1 VH with H106W, F108W
VL: B1 VL
notes: also called CDRH3 F100D>W
B11: Pos 96 Trp (antibody, V domains shown)
VH: B1 VH with V100W, H106W
VL: B1 VL
notes: also called CDRH3 V96>W
B12: Pos 100C Trp (antibody, V domains shown)
VH: B1 VH with H106W, Y107W
VL: B1 VL
notes: also called CDRH3 Y100C>W
B13: Pos 101 Val (antibody, V domains shown)
VH: B1 VH with H106W, D109V
VL: B1 VL
notes: also called CDRH3 D101>V
B14: Humanised 10G8 H1L1 (antibody, V domains shown)
VH: B1 VH with V2M, S31N, H106W
VL: DIVMTQSPDSLAVSLGERATINCRASKSVSAAGYNFMHWYQQKPGQPPKVLIYYASNLESGVPDRFSGSGSGTDFTLTISSLQAEDVAVYYCLHSREFPFTFGGGTKVEIK
B15: Humanised 10G8 H1L4 (antibody, V domains shown)
VH: B1 VH with V2M, S31N, H106W
VL: B14 VL with A88V, K107N
B16: Humanised 10G8 H2L4 (antibody, V domains shown)
VH: B1 VH with S31N, H106W, R113S
VL: B14 VL with A88V, K107N
B17: Humanised 10G8 H0L4 (antibody, V domains shown)
VH: B1 VH with S31N, H106W
VL: B14 VL with A88V, K107N
B18: Humanised 10G8 H2L1 (antibody, V domains shown)
VH: B1 VH with S31N, H106W, R113S
VL: B14 VL
B19: Pos 101 Ala (antibody, V domains shown)
VH: B1 VH with H106W, D109A
VL: B1 VL
notes: also called CDRH3 D101>A
B20: Pos 100C Leu (antibody, V domains shown)
VH: B1 VH with H106W, Y107L
VL: B1 VL
notes: also called CDRH3 Y100C>L
B21: Pos 100B Gln (antibody, V domains shown)
VH: B1 VH with H106Q
VL: B1 VL
notes: also called CDRH3 W100B>Q
B22: Pos 100A Gln (antibody, V domains shown)
VH: B1 VH with F105Q, H106W
VL: B1 VL
notes: also called CDRH3 F100A>Q
B23: Pos 100A Met (antibody, V domains shown)
VH: B1 VH with F105M, H106W
VL: B1 VL
notes: also called CDRH3 F100A>M
B24: Pos 101 Gln (antibody, V domains shown)
VH: B1 VH with H106W, D109Q
VL: B1 VL
notes: also called CDRH3 D101>Q
B25: Pos 100 Ala (antibody, V domains shown)
VH: B1 VH with T104A, H106W
VL: B1 VL
notes: also called CDRH3 T100>A
B26: Pos 100A His (antibody, V domains shown)
VH: B1 VH with F105H, H106W
VL: B1 VL
notes: also called CDRH3 F100A>H
B27: Pos 100C Gln (antibody, V domains shown)
VH: B1 VH with H106W, Y107Q
VL: B1 VL
notes: also called CDRH3 Y100C>Q

target: T1, Human OSM; test: SPR (ProteOn XPR36 or Biacore T100), captured supernatant, OSM as analyte; hatched cell: separate experiment
Experimental: (§1) The initial kinetic analyses for the CDRH3 screen were carried out on the ProteOn XPR36 (Biorad Laboratories) and certain supernatants were selected for more accurate kinetic analysis on the BiaCore T100.
(§2) For the ProteOn analysis, anti-human IgG (GE Healthcare/Biacore BR-1008-39) was coupled to a GLM chip (Biorad Laboratories 176-5012) by primary amine coupling. The CDRH3 variants were captured directly on to this surface and recombinant human OSM was passed over the captured antibody surface at 256, 64, 16, 4 and 1 nM, with a buffer injection alone (i.e. 0 nM) used to double reference the binding curves. Following the OSM binding event, the capture surfaces were regenerated: with 3M MgCl₂ the regeneration removed the previously captured antibody ready for another cycle of capture and binding analysis. The data was then fitted to the 1:1 model (with mass transport) inherent to the ProteOn analysis software. The run was carried out using HBS-EP (Biacore/GE-Healthcare BR-1006-69) and the analysis temperature was 25° C.
(§3) A similar method was used for analysis of constructs using the Biacore T100, anti-human IgG (GE Healthcare/Biacore BR-1008-39) was coupled to a CM5 chip (GE Healthcare/Biacore BR-1006-68) by primary amine coupling, antibodies were captured on this surface and recombinant human OSM was passed over the captured antibody surface at 256, 64, 16, 4 and 1 nM, with a buffer injection alone (i.e. 0 nM) used to double reference the binding curves. Regeneration was by using pulses of 3M 3M MgCl₂ or 100 mM phosphoric acid or using both reagents. The data was fitted to the 1:1 model inherent to the Biacore T100 analysis software. The run was carried out using HBS-EP (Biacore/GE-Healthcare BR-1006-69) and the analysis temperature was 25° C.

Kd [nM]	Binder
36.2	B1
15.6	B2
1.62	B3
6.93	B4

target: T1, Human OSM; test: SPR (ProteOn XPR36 or Biacore T100), captured supernatant, OSM as analyte [continued]
Experimental: as §1, §2, §3

Kd [nM]	Binder
0.497	B5
0.317	B6
0.444	B7
0.675	B8
0.56	B9
0.711	B10
0.979	B11
0.687	B12
0.44	B13

target: T2, Cynomolgus OSM; test: cell-based or functional assay

KB cell neutralisation assay, mean IC50	Binder
0.01 µg/ml and 67 pM	B14
0.011 µg/ml and 10 pM	B15
0.016 µg/ml and 58 pM	B16
0.012 µg/ml and 49 pM	B17
0.013 µg/ml and 14 pM	B18

target: T1, Human OSM; test: cell-based or functional assay

KB cell neutralisation assay, mean IC50	Binder
0.013 µg/ml and 83 pM	B14
0.016 µg/ml and 107 pM	B15
0.022 µg/ml and 147 pM	B16
0.018 µg/ml and 118 pM	B17
0.014 µg/ml and 93 pM	B18

target: T1, Human OSM; test: SPR (ProteOn XPR36 or Biacore T100), captured supernatant, OSM as analyte; grey cell: 3x decrease in binding
Experimental: as §1, §2, §3

Kd [nM]	Binder
1.55	B19
0.424	B20
3.35	B21
14.6	B22
5.19	B23
1.1	B24
8.55	B25
39.7	B26
1.17	B27

target: T1, Human OSM; test: BIAcore kinetics, transfection supernatant

Kd [nM]	koff [s⁻¹]	kon [M⁻¹ s⁻¹]	Binder
0.25	9.99e-05	400000	B14
0.344	0.00013	377000	B15
0.226	0.000101	448000	B16
0.268	0.000111	413000	B17
0.286	0.000113	394000	B18

target: T2, Cynomolgus OSM; test: BIAcore kinetics, purified antibody

Kd [nM]	koff [s⁻¹]	kon [M⁻¹ s⁻¹]	Binder
0.258	0.00011	428000	B14
0.264	0.000111	421000	B15
0.205	9.01e-05	441000	B16
0.242	0.000101	418000	B17
0.299	0.000124	414000	B18

target: T1, Human OSM; test: BIAcore kinetics, purified antibody

Kd [nM]	koff [s⁻¹]	kon [M⁻¹ s⁻¹]	Binder
0.443	0.000166	375000	B14
0.37	0.000135	365000	B15
0.356	0.000135	380000	B16
0.374	0.00014	374000	B17
0.365	0.00014	383000	B18
